Source: patent publication US10913773B2, “Bicyclic peptidyl inhibitor of tumor necrosis factor-alpha” (Ohio State Innovation Foundation, priority 2016, dated 2021)
Where two headings read alike, the source gives them in different places. Starred links: 1 amine or outer side, 2 acyl side, 3 side chain; linkers in the order of their positions; H or OH if unused. Positions of bridges follow the written chain, without caps; N, C: chain ends. Non-standard residues stand in square brackets, D forms with d. Residues, ends and D or L forms follow the SMILES beside them. Primed or numbered codes have the meaning given here. No end group written: not given here. *: point of attachment. FITC = O=C1OC2(c3ccc(O)cc3Oc3cc(O)ccc32)c2ccc(NC(=S)*)cc21; Trimesoyl = O=C(c1cc(C(=O)[*:2])cc(C(=O)[*:3])c1)[*:1]; trimesoyl″ = benzene-1,3,5-tricarbonyl scaffold; Phe(4-F) = N[C@@H](Cc1ccc(F)cc1)C(=O)O; trimesoyl = benzene-1,3,5-tricarbonyl; Nle = CCCC[C@H](N)C(=O)O; Dap = NC[C@H](N)C(=O)O; AEEA = NCCOCCOCC(=O)O; βAla = NCCC(=O)O

Tests used:
[1] = tested on: TNFα-induced cell death in WEHI-13VAR fibroblasts (recombinant human TNFα); assay type: cell-based
Description: WEHI-13VAR fibroblasts were purchased from American Type Culture Collection (ATCC). For maintenance, cells were grown in full medium as RPMI-1640 supplemented with 10% FBS and 1% Abs. For toxicity assay, cells were seeded in a 96-well plate at a density of 5×10^3 cells/well in 100 μL of RPMI-1640/1% Abs supplemented with 10% or 5% FBS and allowed to grow overnight. Varying concentrations of recombinant human TNFα (0-250 ng/mL) or commercial mouse TNFα were (0-100 pg/mL) were incubated with 10 μM peptide and actinomycin D (1 μg/mL) in 100 μL of corresponding growth medium for 1 h at 37° C. Next, the medium in the 96-well plate was removed and replaced with the above fresh mixture and the cells were incubated overnight. Next day, 10 μL of the 3-(4, 5-dimethylthiazolyl-2)-2, 5-diphenyltetrazolium bromide (MTT, final concentration 0.5 mg/ml) was added to each well and incubated at 37° C. for 3 h, following by the addition of 100 μL of the MTT solubilization solution. The plate was kept in the incubator overnight to let the formazan crystals to completely dissolve, and the absorbance at 570 nm was measured on a TECAN plate reader. The LD50 was obtained as plotting the viability as a function of the TNFα concentration.
One of the biological functions of TNFα is to induce death signaling. Inhibitors against the TNFα-TNFR interaction are expected to protect cells against TNFα induced cell death. Therefore, anticachexin C1, C1-74, and C1-74-2 through C1-74-5 were compared for their ability to protect cultured WEHI-13 VAR fibroblasts, which are highly sensitive to TNFα in the presence of actinomycin-D, against TNFα-induced cell death (Khabar, K. S. A.; et al., “WEHI-13VAR: A Stable and Sensitive Variant of WEHI 164 Clone 13 Fibrosarcoma for Tumor Necrosis Factor Bioassay.” Immunol. Lett. 1995, 46:107-110). The cells were treated with a fixed concentration of peptides (10 μM) and varying concentrations of TNFα (0-1 μM), and the fraction of live cells was quantitated by the 3-(4,5-dimethylthiazol-2-yl)-2,5-diphenyltetrazolium bromide (MTT) assay. […] The MTT assay was also conducted at a fixed concentration of TNFα (0.4 ng/mL) but varying concentrations of peptides (0-10 μM).

TNFα-TNFR1 interaction = molecular target: T1, TNFα-TNFR1 interaction (Homo sapiens, UniProt P01375); test: ELISA inhibition of TNFα-TNFR1 interaction (immobilized biotinylated TNFα, TNFR1-HRP); assay type: binding; conditions: inhibition of TNFα-TNFR1 interaction, unlabeled peptides
T1 construct: made in house; host or cells: Escherichia coli (TNFα)
Description: Inhibition of TNFα-TNRF1 interaction by ELISA was carried out as previously described (Lian, W.; et al., supra).
Because of its high-throughput capability, FA analysis had been used to generate all of the SAR data described above. […] To confirm the SAR data obtained by FA analysis, some of the compounds in Table 5 (as well as new compounds) were resynthesized without the Lys(FITC) label and employed a more sensitive ELISA-based assay to determine the IC50 values for inhibition of the TNFα-TNFR1 interaction. Briefly, biotinylated TNFα was immobilized onto a NeutrAvidin-coated surface. TNFR1 conjugated with horseradish peroxidase (HRP) (0.5 nM) was added along with different concentrations of a peptide inhibitor. After washing, the amount of bound TNFR1-HRP was quantitated by ELISA. […] In agreement with the FA results, either extension at the C-terminus of β-Ala with another amino acid (C1-67 to C1-70) or side-chain modification of β-Ala (C1-71 to C1-73) decreased TNFα binding.

Serum stability test = assay type: in vitro ADME, human; conditions: 37° C.
Description: Diluted human serum (25%) was centrifuged at 15,000 rpm for 10 min, and the supernatant was collected. A peptide stock solution was diluted into the supernatant to a final concentration of 5 μM and incubated at 37° C. At various time points (0-8 h), 200-μL aliquots were withdrawn and mixed with 50 μL of 15% trichloroacetic acid and 200 μL of acetonitrile. After incubation at 4° C. overnight, the mixture was centrifuged at 15,000 rpm for 10 min in a microcentrifuge, and the supernatant was analyzed by reversed-phase HPLC equipped with an analytical C18 column (Waters). The amount of remaining intact peptide (%, relative that of time zero control) was determined by integrating the area underneath the peptide peak (monitored at 214 nm).

[2] = molecular target: Recombinant TNFα containing an N-terminal 13-aa ybbR tag (human) (UniProt P01375); test: FA, FITC-peptide + TNFα titration
Recombinant TNFα containing an N-terminal 13-aa ybbR tag (human), sequence (P01375 77-233): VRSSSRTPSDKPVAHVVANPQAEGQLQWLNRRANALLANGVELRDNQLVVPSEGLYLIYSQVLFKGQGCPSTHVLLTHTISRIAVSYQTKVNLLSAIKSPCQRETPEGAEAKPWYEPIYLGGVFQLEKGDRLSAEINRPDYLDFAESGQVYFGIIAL

[3] = molecular target: T2, Recombinant TNFα containing an N-terminal 13-aa ybbR tag (human, UniProt P01375 77-233, biotin at the ybbR tag in the ELISA assays); test: cell-based or functional assay
T2 sequence (P01375 77-233): as above

[4] = molecular target: T2, Recombinant TNFα containing an …; test: ELISA, inhibition of TNFR1-HRP binding to immobilized biotin-TNFα
Description: Because of its high-throughput capability, FA analysis had been used to generate all of the SAR data described above. […] Briefly, biotinylated TNFα was immobilized onto a NeutrAvidin-coated surface.

[5] = molecular target: T2, Recombinant TNFα containing an …; test: FA, FITC-peptide + TNFα titration
Description: (§1) The FA values were measured on a Molecular Devices Spectramax M5 spectrofluorimeter, with excitation and emission wavelengths at 485 and 525 nm, respectively. Equilibrium dissociation constants (KD) were determined by plotting the FA values as a function of TNFα concentration and fitting the data to the following equation $$Y = \frac{\left(Amin + \left(Amax \times \frac{Q_b}{Q_f} - Amin\right)\left(\frac{(L+x+K_d) - \sqrt{((L+x+K_d)^2 - 4Lx)}}{2L}\right)\right)}{\left(1 + \left(\frac{Q_b}{Q_f} - 1\right)\left(\frac{(L+x+K_d) - \sqrt{((L+x+K_d)^2 - 4Lx)}}{2L}\right)\right)}$$
(§2) where Y is the measured anisotropy at a given TNFα concentration x; L is the bicyclic peptide concentration; Qb/Qf is the correction fact for dye-protein interaction; Amax is the maximum anisotropy when all the peptides are bound to TNFα, while $Amin$ is the minimum anisotropy. […] The FA values were plotted against the competitor peptide concentration to determine the IC$50$ values.

[6] = molecular target: T2, Recombinant TNFα containing an …; test: FA, FITC-peptide + TNFα titration; remark: listed apart in the source
Description: as §1, §2

[7] = molecular target: T2, Recombinant TNFα containing an …; test: FA, FITC-peptide + TNFα titration; remark: listed apart in the source
[8] = molecular target: T2, Recombinant TNFα containing an …; test: FA
Description: as §1, §2

CCCC[C@@H]1NC(=O)c2cc3cc(c2)C(=O)NC[C@@H](C(=O)NCCC(N)=O)NC(=O)[C@H](Cc2c[nH]cn2)NC(=O)[C@@H](CCCCN)NC(=O)CNC(=O)[C@@H](Cc2c[nH]cn2)NC(=O)[C@H](Cc2c[nH]c4ccccc24)NC(=O)[C@H](CCCCNC3=O)NC(=O)[C@@H](C)NC(=O)[C@H](Cc2ccc(O)cc2)NC1=O [Compound C1-74] ([Nle]Y[dA]KW[dH]G[dK]H[Dap][βAla]-NH2; linker N-4-10 via Trimesoyl)
EC50 [1]: ~1000 nM
IC50 (TNFα-TNFR1 interaction): 70 nM

CC(=O)[C@@H](Cc1ccccc1)NC(=O)[C@@H](C)NC(=O)C(N)Cc1ccc(F)c(F)c1 (stereo partly shown) [Compound C1-74-3]
LD50 [1]: 2.6 ± 0.9 ng/mL
IC50 (TNFα-TNFR1 interaction): 150 ± 43 nM

DRQIKIWFQNRRMKWKKTALDWSWLQTE [Antp-NBD]
Time to complete degradation in human serum (Serum stability test): ≤ 2 h
half-life at 5 μM (Serum stability test; human, diluted human serum (25%), supernatant after centrifugation): ~15 min

B1: C1-38 (peptide)
peptide: [Nle][Phe(4-F)][dS]K[Phe(4-F)][dH]G[dK]H[Dap]K(FITC)-NH2
modifications: linker (positions not given here) via trimesoyl; not fully specified (N-terminus, bridges)
Kd [2]: 2100 nM

B2: C1-74 (peptide)
peptide: [Nle]Y[dA]KW[dH]G[dK]H[Dap][βAla]-NH2
modifications: linker N-4-10 via trimesoyl
notes: C1-66 with D-Ser3 reverted to D-Ala; also called bicyclic peptide C1-74
EC50 of protection of WEHI-13VAR cells from 0.4 ng/mL TNFα, MTT [3]: ~1000 nM

B3: C1-56 (peptide)
peptide: [Nle]Y[dS]KW[dH]G[dK]H[Dap][dF][AEEA]K(FITC)-NH2
modifications: linker (positions not given here) via trimesoyl; not fully specified (N-terminus, bridges)
Kd [2]: 630 nM

[Nle]Y[dS]KW[dH]G[dK]H[Dap][βAla]A-NH2 (linker N-4-10 via trimesoyl″, No Lys(FITC) label) [C1-68]
IC50 [4]: 2600 nM

[Nle]Y[dS]KW[dH]G[dK]H[Dap]K(FITC)-NH2 (linker N-4-10 via trimesoyl″) [C1-35]
Kd [5]: 260 nM
Kd [6]: 260 nM
Kd [7]: 260 nM
fold increase in affinity against Tyr at position-5 [8]: 3 fold

[Nle]Y[dS]KW[dH]G[dK]H[Dap]NK(FITC)-NH2 (linker N-4-10 via trimesoyl″, C1-35 core with R11 as printed) [C1-52]
Kd [5]: 790 nM
fold reduction in affinity against C1-35 [8]: 3 fold
